Blank lines part the entries; values can stand above or below the molecule they belong to.
Legend:
[1] = target: human IL-11 (Invigate, e.g., lot #C121021-19) (human) (UniProt P20809); assay: cell-based or functional assay
[2] = target: murine IL-11 (Invigate, e.g., lot #C210819-09) (mouse) (UniProt P47873); assay: cell-based or functional assay
[3] = target: human IL-11 (Invigate, e.g., lot #C121021-19) (human) (UniProt P20809); assay: Tri-complex ELISA (hIL-11, mIL-11Ra-Fc, hgp130-Fc)
[4] = target: murine IL-11 (Invigate, e.g., lot #C210819-09) (mouse) (UniProt P47873); assay: Tri-complex ELISA (mIL-11, mIL-11Ra-Fc, mgp130-Fc)
[5] = target: human IL-11 (Invigate, e.g., lot #C121021-19) (human) (UniProt P20809); assay: Di-complex ELISA (hIL-11 coated, canine IL11RA-hFc)
[6] = target: murine IL-11 (Invigate, e.g., lot #C210819-09) (mouse) (UniProt P47873); assay: Di-complex ELISA (mIL-11 coated, canine IL11RA-hFc)
[7] = target: human IL-11 (Invigate, e.g., lot #C121021-19) (human) (UniProt P20809); assay: SPR, antibody captured, single IL-11 concentration 200 nM
[8] = target: murine IL-11 (Invigate, e.g., lot #C210819-09) (mouse) (UniProt P47873); assay: as above
[9] = target: cynomolgus IL-11 (cynomolgus) (UniProt P20808); assay: cell-based or functional assay
human IL-11 (human) [10] = target: human IL-11 (human) (UniProt P20809); assay: cell-based or functional assay
[11] = target: T1, murine IL-11 (Invigate, e.g., lot #C210819-09) (mouse, UniProt P47873 22-199); assay: Tri-complex ELISA (mIL-11, mIL-11Ra-Fc, mgp130-Fc)
T1 construct: Biotinylated and captured on streptavidin plates in the Di-complex ELISA; unmodified analyte in SPR; also called mIL11; mIL-11
T1 sequence: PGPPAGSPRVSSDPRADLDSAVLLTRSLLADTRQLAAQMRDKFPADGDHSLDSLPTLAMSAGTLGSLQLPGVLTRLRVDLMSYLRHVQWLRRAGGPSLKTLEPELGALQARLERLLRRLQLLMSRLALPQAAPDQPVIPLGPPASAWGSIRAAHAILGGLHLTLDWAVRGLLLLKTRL

human IL-11 (human) [12] = target: human IL-11 (human) (UniProt P20809); assay: Di-complex ELISA, competitor canine IL11RA-hFc, IL-11 immobilised
murine IL-11 = target: T2, murine IL-11 (mouse, UniProt P47873 22-199); assay: SPR, antibody captured, IL-11 analyte
T2 construct: bought from Invigate; also called mIL-11; mIL11
T2 sequence: T1 sequence
Procedure: Antibodies were captured via anti-mouse Fc IgGs (“Mouse antibody capture kit, Order No. BR100383, Cytiva) covalently amine coupled to a Series S CMS sensor chip (Cytiva). The amine coupling was carried out according to the manufacturer's instructions using 1-ethyl-3-(3-dimethylaminopropyl) carbodiimide hydrochloride (EDC), N-hydroxysuccinimide ([…]) and ethanolamine HCl, pH 8.5 (“Amine Coupling Kit” BR-1000-50, Cytiva). Human IL-11 (Invigate, e.g., lot #C121021-19), and murine IL-11 (Invigate, e.g., lot #C210819-09) were used as analytes. […] Based on that experiment an IL-11 concentration range was chosen to optimally determine kinetics and affinity of anti-IL-11 antibodies in multicycle kinetics mode. The sensor surface was regenerated with glycine pH 1.7 after each antigen injection. Obtained sensorgrams were double referenced (subtraction of reference flow cell signal and buffer injection) and were fitted to a 1:1 Langmuir binding model to derive kinetic data using the Biacore T200 Evaluation software or the Biacore Insight software.
42 hits from the IL-11 and IL-2Ra screening analysis were selected, expressed by transient transfection of mammalian cells and purified as described in Example 15. Antibodies were then tested for human IL-11 and murine IL-11 binding by SPR as described in Example 16.

Efficacy (%)*, RGA [1]: 23.9% | Efficacy (%)*, RGA [2]: 15.6% | Efficacy (%) [3]: 0% | Efficacy (%) [4]: 1.5% | Efficacy (%) [5]: 0% | Efficacy (%) [6]: 0%
Molecule: MA5-30695 (Thermo Fisher Scientific, clone 9) (antibody)

Efficacy (%)*, RGA [1]: 52.7% | IC50 [M], RGA [1]: 5e-08 M | Efficacy (%)*, RGA [2]: 88.3% | IC50 [M], RGA [2]: 5.6e-09 M | Efficacy (%) [3]: 78.5% | IC50 [3]: 10 nM | Efficacy (%) [4]: 90.3% | IC50 [4]: 6.6 nM | Efficacy (%) [5]: 90.1% | IC50 [5]: 10 nM | Efficacy (%) [6]: 96.2% | IC50 [6]: 6.5 nM | Kd [7]: 6.3 nM | Kd [8]: 6.2 nM
Molecule: LS-C193526 (LS-bio, clone KT8) (antibody)

Efficacy (%)*, RGA [1]: 42.6% | Efficacy (%)*, RGA [2]: 88% | IC50 [M], RGA [2]: 3.9e-09 M | Efficacy (%) [3]: 65.6% | IC50 [3]: 20 nM | Efficacy (%) [4]: 98.4% | IC50 [4]: 3.8 nM | Efficacy (%) [5]: 71.5% | IC50 [5]: 5.3 nM | Efficacy (%) [6]: 91.2% | IC50 [6]: 3.5 nM | Kd [7]: 3.9 nM | Kd [8]: 2.2 nM
Molecule: LS-C104441 (LS-bio) (antibody)

Continued, molecule first:

Molecule: MA5-23711 (Thermo Fisher Scientific, clone 22616) (antibody)
Efficacy (%)*, RGA [1]: 19.9% | Efficacy (%)*, RGA [2]: 47.6% | Efficacy (%) [3]: 34.1% | IC50 [3]: 19 nM | Efficacy (%) [4]: 62.3% | Efficacy (%) [5]: 51.1% | IC50 [5]: 60 nM | Efficacy (%) [6]: 70.5% | IC50 [6]: 29 nM | Kd [7]: 3.6 nM | Kd [8]: 2 nM

Molecule: GTX52814 (Genetex, clone 9T27) (antibody)
Efficacy (%)*, RGA [1]: 5.1% | Efficacy (%)*, RGA [2]: 75.5% | Efficacy (%) [3]: 36.9% | IC50 [3]: 14 nM | Efficacy (%) [4]: 106% | IC50 [4]: 17 nM | Efficacy (%) [5]: 74.9% | IC50 [5]: 1.9 nM | Efficacy (%) [6]: 89.9% | IC50 [6]: 4.7 nM | Kd [7]: 3.3 nM | Kd [8]: 2 nM

Molecule: GTX34009 (Genetex, clone 6D9A1) (antibody)
Efficacy (%)*, RGA [1]: 21.3% | Efficacy (%)*, RGA [2]: 0% | Efficacy (%) [3]: 1.1% | Efficacy (%) [4]: 0% | Efficacy (%) [5]: 10.3% | Efficacy (%) [6]: 11.7%

Molecule: TPP-14250 (R&D Systems, #MAB218) (antibody)
Efficacy (%), Stat3 reporter gene assay [1]: 27.1% | IC50 [M], Stat3 reporter gene assay [1]: 2.4e-10 M | Efficacy (%), Stat3 reporter gene assay [2]: 69.1% | IC50 [M], Stat3 reporter gene assay [2]: 1.4e-07 M | Efficacy (%) [3]: 81.1% | IC50 [3]: 15 nM | Efficacy (%) [4]: 81.1% | IC50 [4]: 8 nM

Molecule: MA5-30696 (Thermo Fisher Scientific, clone 12) (antibody)
Efficacy (%)*, RGA [1]: 4.9% | Efficacy (%)*, RGA [2]: 17.2% | Efficacy (%) [3]: 4.7% | Efficacy (%) [4]: 4.3% | Efficacy (%) [5]: 8.1% | Efficacy (%) [6]: 3.1%

B1: TPP-18087 (antibody, mouse IgG1, V domains shown)
VH: EVQLLESGGGLVQPGGSLRLSCAASGFTFSHYDMNWLRQAPGKGLEWVGVISYDGSNKFYADFVKGRFTISRDNSKNTLYLQMNSLRAEDTAVYYCARTPGSHFDYWGQGTLVTVSS
VL: QSVLTQPPSASGTPGQRVTISCSGSSSNIGNNAVNWYQQLPGTAPKLLIYYDDLLPSGVPDRFSGSKSGTSASLAISGLRSEDEADYYCSAWDDSLNGVVFGGGTKLTVLG
notes: mIgG1, Lambda
Efficacy (%) (RGA) [9]: 47.7% | Efficacy (%) (RGA) (human IL-11 (human) [10]): 47.8% | Efficacy (%) [11]: 25% | Efficacy (%) (human IL-11 (human) [12]): 0%

B2: TPP-26333 (antibody, IgG1, V domains shown)
VH: EVQLLESGGGLVQPGGSLRLSCAASGFTFSSYGFHWVRQAPGKGLEWVSVISYDGSYKYYADSVKGRFTISRDNSKNTLYLQMNSLRAEDTAVYYCAAGVPDYWGQGTLVTVSS
VL: QSVLTQPPSASGTPGQRVTISCTGSSSNIGAGYDVHWYQQLPGTAPKLLIYSNNERPSGVPDRFSGSKSGTSASLAISGLRSEDEADYYCAAWDDSLNGPVFGGGTKLTVL
binding result (murine IL-11): no binding

— patent US20240124572A1 (Bayer, published 2024)
